Reference: patent publication US20260139049A1 (PEDIATRIC IMMUNITY AND HEALTHCARE GUANGZHOU BIOTECHNOLOGY, published 2026)
Numbering of substitutions follows the chain as printed. One block for each binder: values may come before it.

Key:
human CLDN6 [1] = molecular target: T1, human CLDN6 (human, UniProt P56747 1-220); experiment: FACS on HEK293T-CLDN6 cells
T1 construct: whole, on cells; four-transmembrane protein; also called claudin-6; HEK293T-CLDN6
T1 sequence (looked up): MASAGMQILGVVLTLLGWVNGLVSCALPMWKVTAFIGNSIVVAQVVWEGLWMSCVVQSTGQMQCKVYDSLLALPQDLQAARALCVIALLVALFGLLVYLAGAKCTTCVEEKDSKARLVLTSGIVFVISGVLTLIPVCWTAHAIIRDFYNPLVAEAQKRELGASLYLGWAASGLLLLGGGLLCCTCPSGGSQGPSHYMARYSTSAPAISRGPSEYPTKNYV
Procedure: (§1) To detect a binding capacity of a chimeric or humanized antibody to CLDN6, a CLDN6-expressing cell line HEK293T-CLDN6 and a CLDN6-negative control cell line HEK293T were washed three times with PBS. 1×10⁵ test cells and 50 μL of an antibody solution to be tested were added to a 96-well plate, and incubated at 4° C. for 1 h. The cells were then washed three times with PBS. […] Finally, cells were washed three times with PBS, and signals were read using FACS.
(§2) An EC50 value (a concentration of an antibody that binds to half of binding sites at equilibrium) is calculated through nonlinear regression.

[2] = molecular target: T2, monkey CLDN6 (Cyno CLDN6) (monkey (Cyno)); experiment: FACS on CHO-K1-Cyno CLDN6 cells
T2 construct: whole, on cells; also called CHO-K1-Cyno CLDN6

human CLDN4 = molecular target: T3, human CLDN4 (human, UniProt O14493 1-209); experiment: FACS on 293T-CLDN4 cells, 10 µg/mL
T3 construct: whole, on cells; also called HEK293T-CLDN4
T3 sequence (looked up): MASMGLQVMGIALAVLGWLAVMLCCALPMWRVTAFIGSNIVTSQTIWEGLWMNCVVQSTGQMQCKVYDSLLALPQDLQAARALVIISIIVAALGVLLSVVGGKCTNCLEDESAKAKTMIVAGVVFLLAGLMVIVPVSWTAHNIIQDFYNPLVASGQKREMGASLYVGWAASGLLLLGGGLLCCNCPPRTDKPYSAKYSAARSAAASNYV
Procedure: (§3) 50 μL of an antibody to be tested was added to a 96-well plate, then 1× 10⁵ cells were added to each well, and incubation was conducted at 4° C. for 1 h. Cells were washed three times with PBS. […] Finally, cells were washed three times with PBS, and signals were read using FACS. Binding capacities of the antibody to CLDN9, CLDN3, and CLDN4 were analyzed separately based on detection data.

human CLDN6 [3] = molecular target: T1, human CLDN6; experiment: FACS on 293T-CLDN6 cells, 10 µg/mL
human CLDN9 = molecular target: T4, human CLDN9 (human, UniProt O95484 1-217); experiment: FACS on 293T-CLDN9 cells, 10 µg/mL
T4 construct: whole, on cells; also called HEK293T-CLDN9
T4 sequence (looked up): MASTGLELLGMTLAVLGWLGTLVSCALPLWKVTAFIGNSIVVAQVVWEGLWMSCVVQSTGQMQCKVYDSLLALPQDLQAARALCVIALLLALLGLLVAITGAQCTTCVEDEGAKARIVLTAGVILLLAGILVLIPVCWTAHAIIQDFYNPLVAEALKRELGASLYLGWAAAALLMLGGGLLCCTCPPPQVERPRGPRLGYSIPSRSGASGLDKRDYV
Procedure: as §3

human CLDN6 [4] = molecular target: T1, human CLDN6; experiment: ratio of FACS signals on CLDN6 cells over CLDN9 cells
Procedure: as §3

human CLDN6 [5] = molecular target: T1, human CLDN6; experiment: FACS on PA-1 tumour cells; target on the cells taken as CLDN6
Procedure: (§4) The specific binding of a chimeric antibody to a tumor cell was detected by FACS, and an EC50 value was calculated accordingly to evaluate an inhibitory effect of the chimeric antibody on the tumor cell.
as §3, with “1×10⁵” for “1× 10⁵”, “A binding capacity” for “Binding capacities”, “each tumor cell was” for “CLDN9, CLDN3, and CLDN4 were”, “analyzed” for “analyzed separately”

human CLDN6 [6] = molecular target: T1, human CLDN6; experiment: ratio of FACS Geom.Mean on 293T-CLDN6 over 293T-CLDN9, 10 µg/mL
Procedure: as §3

mouse CLDN6 = molecular target: T5, mouse CLDN6 (mouse, UniProt Q9Z262 1-219); experiment: FACS on CHO-K1-Mouse CLDN6 cells
T5 construct: whole, on cells; also called CHO-K1-Mouse CLDN6
T5 sequence (looked up): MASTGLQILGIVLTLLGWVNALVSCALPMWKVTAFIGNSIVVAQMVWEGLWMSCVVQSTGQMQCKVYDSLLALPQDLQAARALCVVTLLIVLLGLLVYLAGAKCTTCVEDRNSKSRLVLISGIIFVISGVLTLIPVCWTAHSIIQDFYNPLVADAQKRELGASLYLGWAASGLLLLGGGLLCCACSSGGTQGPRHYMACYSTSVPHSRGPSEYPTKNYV

human CLDN3 = molecular target: T6, human CLDN3 (human, UniProt O15551 1-220); experiment: FACS on 293T-CLDN3 cells, 10 µg/mL
T6 construct: whole, on cells; also called HEK293T-CLDN3
T6 sequence (looked up): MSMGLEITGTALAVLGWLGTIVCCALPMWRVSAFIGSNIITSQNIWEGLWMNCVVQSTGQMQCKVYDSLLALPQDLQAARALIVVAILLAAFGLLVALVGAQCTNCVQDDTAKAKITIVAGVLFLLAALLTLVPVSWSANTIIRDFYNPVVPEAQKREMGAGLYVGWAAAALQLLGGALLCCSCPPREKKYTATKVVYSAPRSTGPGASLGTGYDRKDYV
Procedure: as §3

human CLDN6 [7] = molecular target: T1, human CLDN6; experiment: FACS on HepG2 tumour cells; target on the cells taken as CLDN6
Procedure: as §4
as §3, with “1×10⁵” for “1× 10⁵”, “A binding capacity” for “Binding capacities”, “each tumor cell was” for “CLDN9, CLDN3, and CLDN4 were”, “analyzed” for “analyzed separately”

human CLDN6 [8] = molecular target: T1, human CLDN6; experiment: FACS on HEK293T-CLDN6 cells; remark: listed apart in the source
Procedure: as §1, §2

human CLDN6 [9] = molecular target: T1, human CLDN6; experiment: FACS on PA-1 tumour cells; target on the cells taken as CLDN6; remark: listed apart in the source
Procedure: as §3, with “1×10⁵” for “1× 10⁵”, “A binding capacity” for “Binding capacities”, “each tumor cell was” for “CLDN9, CLDN3, and CLDN4 were”, “analyzed” for “analyzed separately”

human CLDN6 [10] = molecular target: T1, human CLDN6; experiment: FACS on HepG2 tumour cells; target on the cells taken as CLDN6; remark: listed apart in the source
Procedure: as §3, with “1×10⁵” for “1× 10⁵”, “A binding capacity” for “Binding capacities”, “each tumor cell was” for “CLDN9, CLDN3, and CLDN4 were”, “analyzed” for “analyzed separately”

human CLDN6 [11] = molecular target: T1, human CLDN6; experiment: FACS on HepG2 tumour cells, 5 µg/mL; target on the cells taken as CLDN6
Procedure: as §3, with “1×10⁵” for “1× 10⁵”, “A binding capacity” for “Binding capacities”, “each tumor cell was” for “CLDN9, CLDN3, and CLDN4 were”, “analyzed” for “analyzed separately”

human CLDN6 [12] = molecular target: T1, human CLDN6; experiment: FACS on HepG2 tumour cells; target on the cells taken as CLDN6; remark: listed apart in the source
Procedure: as §3, with “1×10⁵” for “1× 10⁵”, “A binding capacity” for “Binding capacities”, “each tumor cell was” for “CLDN9, CLDN3, and CLDN4 were”, “analyzed” for “analyzed separately”

EC50 (human CLDN6 [1]): 0.135 µg/mL
EC50 [2]: 0.16 µg/mL
Geom.Mean (human CLDN4): 8440
Geom.Mean (human CLDN6 [3]): 33800
Geom.Mean (human CLDN9): 731
CLDN6/CLDN9 signal ratio (human CLDN6 [4]): ~50 fold
EC50 (human CLDN6 [5]): 0.232 µg/mL
CLDN6/CLDN9 ratio (human CLDN6 [6]): 46
B1: 58G3C7 (antibody, human IgG1, kappa, V domains shown)
VH: EVQLVESGGGLVKPGGSLKLSCAASGFTFSNYAMSWVRQTPEKRLEWVATISDGGSYTSYPDNIKGRFTISRDNAKNNLYLQVTHLKSEDTAMYYCARDAILITTAGFAYWGQGTLLTVSA
VL: DIQMTQSSSSFSVSLGDRVTITCKASEDIYNRLAWYQQKPGNAPRLLISATTSLETGVPSRFSGSGSGKDYTLSITSLQTEDVATYYCQQYWSFPRTFGGGTKLEVKR
notes: chimeric: murine variable regions on human IgG1 constant regions

EC50 (human CLDN6 [1]): 0.274 µg/mL
EC50 [2]: 0.351 µg/mL
EC50 (mouse CLDN6): 0.117 µg/mL
Geom.Mean (human CLDN3): 139
Geom.Mean (human CLDN4): 5280
Geom.Mean (human CLDN6 [3]): 40800
Geom.Mean (human CLDN9): 88.4
EC50 (human CLDN6 [5]): 0.137 µg/mL
EC50 (human CLDN6 [7]): 0.481 µg/mL
CLDN6/CLDN9 ratio (human CLDN6 [6]): 462
B2: 15H2D4 (antibody, human IgG1, kappa, V domains shown)
VH: QAYLQQSGAELVRSGASVKMSCKASGYTFTSYNIHWVKQTPGQGLEWIGYIYPGNGGTKYNERFKGKATLTADASSSTAYMQISSLTSEDSAVYFCARWRYYDRPTHYAMDYWGQGTSVTVSS
VL: DIVVTQSPASLAVSLGQRATISCRASKSVSTSGFSYLHWFQQKPGQPPKLLIYLASNLESGVPARFSGSGSGTDFTLNIHPVEEEDVAVYYCQHSREFPFTFGSGTKLEIKR
notes: as for B1

EC50 (human CLDN6 [8]): 0.363 µg/mL
EC50 (human CLDN6 [9]): 0.491 µg/mL
EC50 (human CLDN6 [10]): 0.843 µg/mL
Geom.Mean (human CLDN6 [11]): 851
B3: PiH1004 (antibody, human IgG1, kappa, V domains shown)
VH: QVQLVQSGAEVKKPGASVKVSCKASGYTFTDYNMHWVRQAPGQSLEWIGYVNPNNGATSYNQKFKGRATMTVDKSTSTVYMELSSLRSEDTAVYNCARWDGYVYYYGLDYWGQGTLVTVSS
VL: DIQMTQSPSSLSASVGDRVTITCKASDHINNWLAWYQQKPGKVPKLLISGATSLETGVPSRFSGSGSGTDYTLTISSLQPEDVATYYCQQYWSTPYTFGGGTKLEIKR
notes: humanized from 51C10H4; IgG1; also called 51-VH4 + VL3

EC50 (human CLDN6 [12]): 5.84 µg/mL
B4: PiH2006 (antibody, human IgG1, kappa, V domains shown)
VH: B3 VH with S44R, V51I, S59N, A68V, M70I, K74T, T76A, V79A, L108M
VL: B3 VL with D17G, V43A, L73F, V83I, S93N
notes: humanized from 54B5A7; IgG1; also called 54-VH2 + VL4

Geom.Mean (human CLDN6 [11]): 892
B5: PiH1004-M1 (antibody, human IgG1, kappa, V domains shown)
VH: B3 VH with G56A
VL: B3 VL
notes: PiH1004 with G of NG in heavy-chain CDR2 changed to A; also called improved antibody PiH1004-M1
